Consider 19 sequences from the supplement of paper PMC9170038.

Data set [1] deals with MS2 coat protein. In words: apparent KD of MS2 coat protein, switch OFF state (with FMN for OFF switches, without FMN for ON switches); designed switch direction (-1 OFF switch, 1 ON switch): 1; higher = weaker reporter binding. Particulars: FMN input: 0 or 200 uM; Eterna round: R93 (includes R88 designs). The gist of the method: (§1)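 Designed RNA switches were transcribed on-chip from Illumina sequencing clusters. They were then titrated with SNAP-549-labelled MS2 coat protein (twofold steps, 0.7 or 1.5 nM to 3 µM; 0.8–1.5 h to 10–20 min per step) in 100 mM Tris-HCl pH 7.5, 80 mM KCl, 4 mM MgCl2, without or with constant ligand. Apparent KD is the per-design median of normalised cluster binding-curve fits.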

Data set [2] concerns MS2 coat protein. In words: apparent KD of MS2 coat protein, switch ON state; designed switch direction (-1 OFF switch, 1 ON switch): 1; higher = weaker reporter binding. Particulars: FMN input: 0 or 200 uM; Eterna round: R93 (includes R88 designs). In outline: as §1

Regarding “AGGAAACAUGAGGAUCACCCAUGUAAAAAAUGGGUAGGAUAUGCGAAAAGAAAAAGAAAAGCAGAAGGGCCAAGAA [62%, Something completely different, 3]”, the “apparent KD of MS2 coat protein” value with MS2 coat protein [1] was 444 nM; in the data set with MS2 coat protein [2], 46 nM.

Regarding “AGGAAACAUGAGGAUCACCCAUGUAAGAUAAACACAGGAUAUGCGAAAAGAAACAAAGAAGCAGAAGGGUGGAGAA [75%, Ex5 sub 1, 3]”, the results for the “apparent KD of MS2 coat protein” value with MS2 coat protein [1] and with MS2 coat protein [2] were 25.1 nM and 19.4 nM, respectively.

For “AGGAAACAUGAGGAUCACCCAUGUAUAAAAUAGGGAGGAUAUACUAAGACGAAAGUCAUAGUAGAAGGUCCAAAAA [76%, Meechl, 13]”, the figures for the “apparent KD of MS2 coat protein” value with MS2 coat protein [1] and with MS2 coat protein [2] were 23.4 nM and 17.9 nM, respectively.

For the sequence “AUAAAACAUGAGGAUCACCCAUGUAGAAAUAUGGGAGGAUAUACGAGGACGAAAGUCAAAGUAGAAGGCCUAAAAG [Mat - Same State 1 - Meechl mod - D120]”, the “apparent KD of MS2 coat protein” value in the data set with MS2 coat protein [1] worked out at 40.6 nM; in the data set on MS2 coat protein [2] it was 22.7 nM.

On to “AUAAAACAUGAGGAUCACCCAUGUAGAAAUAUGGGAGGAUAUACUAGAUCGAAAGAUCUAGUAGAAGGCCUUUAAG [JL Mod of Eli 4]”, for which the “apparent KD of MS2 coat protein” value is 49.9 nM with MS2 coat protein [1] and 29.6 nM in the data set on MS2 coat protein [2].

Regarding “AUAAAACAUGAGGAUCACCCAUGUAGAAAUAUGGGAGGAUAUACUAGAUCGAAAGAUCUAGUAGAAGGCCUUUAUA [JL Mod of Eli 6]”, the “apparent KD of MS2 coat protein” value with MS2 coat protein [1] was determined as 45.9 nM; in the data set with MS2 coat protein [2] it was 19.9 nM.

“AUAAAACAUGAGGAUCACCCAUGUCAAGGCUAUCAAGGAUAUAGGAAGCGUAGCGGUUGACUAGAAGGUGAGAAAU [Ragexequ]”: the “apparent KD of MS2 coat protein” value in the data set with MS2 coat protein [1] was found to be 52.4 nM; in the data set on MS2 coat protein [2], 66.9 nM.

Turning to “AUAAAAUAAAGUCAGGAUAUCUAUAAUAAAACAUGAGGAUCACCCAUGUUAAAAAAAAGAUCAUGGGAGAAGGGACAAAAUAAAU [SS2 M 32]”, the results for the “apparent KD of MS2 coat protein” value with MS2 coat protein [1] and in the data set with MS2 coat protein [2] were 28.3 nM and 27 nM, respectively.

In the case of “AUAAUAAGAAGCUAGGAUAUGCUAAAGUAAACAUGAGGAUCACCCAUGUAAAGAAAAAAACUCAUGUAGAAGGAGCAGAAAUAAA [moonwalk 6]”, the “apparent KD of MS2 coat protein” value in the data set on MS2 coat protein [1] is 106 nM; in the data set on MS2 coat protein [2] it was 99.1 nM.

With “AUACGUACGUAUGAGGAUAUCCAUAAUAAGACAUGAGGAUCACCCAUGUAAACAAAACAAUAAUGGGAGAAGGCAUACGUACGAU [SS 2 M 50]”, the results for the “apparent KD of MS2 coat protein” value in the data set on MS2 coat protein [1] and in the data set with MS2 coat protein [2] were 54.8 nM and 47.7 nM, respectively.

On to “AUAUAUAUAAGGAAGGAUAUCUUAGAAAAAACAUGAGGAUCACCCAUGUAAAUAAAGAAUAAAUGGGAGAAGGUCCAUAUAUAUA [77%, More Tesla, 10]”, for which the figures for the “apparent KD of MS2 coat protein” value in the data set on MS2 coat protein [1] and in the data set on MS2 coat protein [2] were 109 nM and 15.1 nM, respectively.

Consider “AUGAAUAGCAUCGAGGAUAUCCAGUCAUGAACAUGAGGAUCACCCAUGUAAGAGAGAGUAUAAUGGGAGAAGGCGAGUAAUCGAU [JR_SS002_Sub1703]”, for which the “apparent KD of MS2 coat protein” value in the data set on MS2 coat protein [1] worked out at 105 nM; with MS2 coat protein [2], 40.3 nM.

As to “AUUACAUAUAGUUAGGAUAUCAUAUGUAAGACAUGAGGAUCACCCAUGUCCUAAGAAUAGGUAAAUGAGAAGGAACAGUGAGUAU [JR_SS002_Sub419]”, the figures for the “apparent KD of MS2 coat protein” value in the data set on MS2 coat protein [1] and in the data set on MS2 coat protein [2] were 23.9 nM and 17.1 nM, respectively.

As to “CCCAAUGCAACGAAGGAUAUCCGUCAUGCUACAUGAGGAUCACCCAUGUACUGGCAGCGCAAGGCGGAGAAGGUCGGGUGCUGUG [Leusesbe]”, the figures for the “apparent KD of MS2 coat protein” value in the data set with MS2 coat protein [1] and with MS2 coat protein [2] were 12.6 nM and 12 nM, respectively.

As for “CCCUCGCAAUAACAGGAUAUACAUGGUCAAACAUGAGGAUCACCCAUGUGAGGAAGUUGGCGGUCGUAGAAGGGUUGUUGGCUCA [Beisvesoqu]”, the “apparent KD of MS2 coat protein” value with MS2 coat protein [1] amounted to 166 nM; with MS2 coat protein [2], 42.8 nM.

On to “CGAAAGGAGAGAGAGGAUAUCCAAAGGAAAACAUGAGGAUCACCCAUGUAGAAGGUAGGAGAUUGGGAGAAGGCUCAAGAGAGAU [salish99-ss2-147]”, for which the “apparent KD of MS2 coat protein” value was 34.3 nM in the data set with MS2 coat protein [1] and 32.1 nM in the data set with MS2 coat protein [2].

In the case of “CGAAAGGAGAGAGAGGAUAUCCAAAGGAAAACAUGAGGAUCACCCAUGUAGAAGGUAGGAGAUUGGGAGAAGGCUCAAGAGAGUA [salish99-ss2-149]”, the “apparent KD of MS2 coat protein” value amounted to 36.3 nM with MS2 coat protein [1] and 25.7 nM in the data set with MS2 coat protein [2].

Consider “CGAAAGUAUGCACAGGAUAUGUACAGGCUAACAUGAGGAUCACCCAUGUGAAAAUGGACCAUGUCGCAGAAGGGUGCCCUCCCGA [Mageor]”, for which the “apparent KD of MS2 coat protein” value in the data set with MS2 coat protein [1] was determined as 40.2 nM; in the data set on MS2 coat protein [2] it was 22.1 nM.

For the sequence “CGGAAGGAGAGAGAGGAUAUCCAAAGGAAAACAUGAGGAUCACCCAUGUAGAAGGUAGGAAAUUGGGAGAAGGCUCAAGAGACAG [salish99-ss2-125]”, the “apparent KD of MS2 coat protein” value worked out at 55.9 nM in the data set on MS2 coat protein [1] and 25.3 nM in the data set on MS2 coat protein [2].
